Assay results from PMC8452709, “Effects of apolipoprotein E isoform, sex, and diet on insulin BBB pharmacokinetics in mice” (Scientific Reports, 2021).

Tested on: blood–brain barrier (BBB)
Assay: 125I-insulin BBB transport, multiple-time regression analysis (Ki)
Assay type: in vivo, mice (human E3- and E4-targeted replacement)
Details: for Ki, linear BBB transport (unidirectional influx rate): 15 mo, iv, albumin-corrected
Method: Ten micrograms of human insulin (Sigma-Aldrich, St. Louis, MO, USA) was diluted in 0.25 M chloride-free sodium phosphate buffer (PB), pH 7.5, and radioactivity labeled with 0.5–1 mCi Na^125I (Perkin Elmer, Waltham, MA, USA) using the chloramine-T (Sigma-Aldrich) method similar to our previously reported methods. […] Protein labelling by ^125I or by ^99mTc isotopes was characterized by 15% trichloroacetic acid (TCA) precipitation.
Mice were anesthetized with an intraperitoneal injection of 0.1–0.15 ml 40% urethane to minimize pain and distress. […] Blood from the left carotid artery was collected between 0.5 and 10 min after intravenous injection. Mice were immediately decapitated and their whole brains quickly removed and weighed. Each mouse provided a single blood sample and time matched brain sample. The arterial blood was centrifuged at 5400g for 10 min at 4 °C and serum collected. The brains were dissected into regions according to the method described in Ref.[56] and weighed. The levels of radioactivity in serum (50 μl) and brain regions were counted in a gamma counter (Wizard2, Perkin Elmer, Waltham, MA). […] Expt was calculated from the formula:1 Exposuretime=∫0tCptdt/Cpt, where Cp is the level of radioactivity (cpm) in serum at time (t). Expt corrects for the clearance of peptide from the blood. The influx of insulin was calculated by multiple-time regression analysis as described by Patlaket al.[55],[57]:2 Am/Cpt=Ki∫0tCptdt/Cpt+Vi, where Am is level of radioactivity (cpm) per g of brain tissue at time t, Cpt is the level of radioactivity (cpm) per ml arterial serum at time t, Ki (μl/g-min) is the steady-state rate of unidirectional solute influx from blood to brain. Vi (μl/g) is the level of rapid and reversible binding for brain which usually is a combination of vascular space plus any brain endothelial cell receptor binding. The brain/serum (B/S) ratios for insulin were corrected for vascular space by subtracting the corresponding ratio for albumin, yielding a delta B/S ratio. The linear portion of the relation between the delta B/S ratio versus Expt was used to calculate the Ki (μl/g-min) with its standard error term, and the y-intercept determined as representation of the Vi (μl/g)[55].
As a priori sex differences were expected, male and female data were analyzed separately. Regression analyses and other statistical analyses were performed with Prism 8.0 (GraphPad Software Inc., San Diego, CA, USA) and SPSS (Chicago, IL) software. Brain weight means are reported with their standard error terms and analyzed using two-way analysis of variance (ANOVA) followed by Sidak’s post hoc test when appropriate. For pharmacokinetic studies, the slope of the linear regression lines (Ki), reported with their correlation coefficients (r), and y-intercepts (Vi) were compared statistically using the Prism software, as described.

125I-insulin: human insulin (Sigma-Aldrich) radioactively labeled with Na125I by the chloramine-T method
Ki, linear BBB transport (unidirectional influx rate) (female E3 HFD mice, cerebellum): 1.34 µL/g/min
Ki, linear BBB transport (unidirectional influx rate) (female E3 HFD mice, hippocampus): 0.96 µL/g/min
Ki, linear BBB transport (unidirectional influx rate) (female E3 HFD mice, occipital cortex): 1.03 µL/g/min
Ki, linear BBB transport (unidirectional influx rate) (female E3 HFD mice, olfactory bulb): 1.19 µL/g/min
Ki, linear BBB transport (unidirectional influx rate) (female E3 HFD mice, parietal cortex): 0.95 µL/g/min
Ki, linear BBB transport (unidirectional influx rate) (female E3 HFD mice, pons/medulla): 1.31 µL/g/min
Ki, linear BBB transport (unidirectional influx rate) (female E3 HFD mice, striatum): 1.32 µL/g/min
Ki, linear BBB transport (unidirectional influx rate) (female E3 HFD mice, thalamus): 0.91 µL/g/min
Ki, linear BBB transport (unidirectional influx rate) (female E3 LFD mice, cerebellum): 1.17 µL/g/min
Ki, linear BBB transport (unidirectional influx rate) (female E3 LFD mice, hippocampus): 1.43 µL/g/min
Ki, linear BBB transport (unidirectional influx rate) (female E3 LFD mice, midbrain): 0.78 µL/g/min
Ki, linear BBB transport (unidirectional influx rate) (female E3 LFD mice, occipital cortex): 0.73 µL/g/min
Ki, linear BBB transport (unidirectional influx rate) (female E3 LFD mice, olfactory bulb, no significant transport (p > 0.05)): 1.06 µL/g/min
Ki, linear BBB transport (unidirectional influx rate) (female E3 LFD mice, parietal cortex, no significant transport (p > 0.05)): 0.64 µL/g/min
Ki, linear BBB transport (unidirectional influx rate) (female E3 LFD mice, pons/medulla): 0.91 µL/g/min
Ki, linear BBB transport (unidirectional influx rate) (female E3 LFD mice, striatum): 0.56 µL/g/min
Ki, linear BBB transport (unidirectional influx rate) (female E3 LFD mice, thalamus, no significant transport (p > 0.05)): 0.71 µL/g/min
Ki, linear BBB transport (unidirectional influx rate) (female E4 HFD mice, cerebellum): 1.04 µL/g/min
Ki, linear BBB transport (unidirectional influx rate) (female E4 HFD mice, frontal cortex): 0.62 µL/g/min
Ki, linear BBB transport (unidirectional influx rate) (female E4 HFD mice, hypothalamus): 1.41 µL/g/min
Ki, linear BBB transport (unidirectional influx rate) (female E4 HFD mice, olfactory bulb): 1.34 µL/g/min
Ki, linear BBB transport (unidirectional influx rate) (female E4 HFD mice, parietal cortex): 0.92 µL/g/min
Ki, linear BBB transport (unidirectional influx rate) (female E4 HFD mice, pons/medulla): 1.27 µL/g/min
Ki, linear BBB transport (unidirectional influx rate) (female E4 HFD mice, striatum, no significant transport (p > 0.05)): 0.85 µL/g/min
Ki, linear BBB transport (unidirectional influx rate) (female E4 LFD mice, cerebellum): 1.63 µL/g/min
Ki, linear BBB transport (unidirectional influx rate) (female E4 LFD mice, hypothalamus): 1.12 µL/g/min
Ki, linear BBB transport (unidirectional influx rate) (female E4 LFD mice, midbrain): 0.50 µL/g/min
Ki, linear BBB transport (unidirectional influx rate) (female E4 LFD mice, pons/medulla): 0.81 µL/g/min
Ki, linear BBB transport (unidirectional influx rate) (female E4 LFD mice, striatum, no significant transport (p > 0.05)): 0.30 µL/g/min
Whole brain BBB transport or vascular binding (females, effect of genotype or diet): no differences
Ki, linear BBB transport (unidirectional influx rate) (male E3 HFD mice, cerebellum): 1.08 µL/g/min
Ki, linear BBB transport (unidirectional influx rate) (male E3 HFD mice, hippocampus, no significant transport (p > 0.05)): 1.08 µL/g/min
Ki, linear BBB transport (unidirectional influx rate) (male E3 HFD mice, hypothalamus, no significant transport (p > 0.05)): 0.57 µL/g/min
Ki, linear BBB transport (unidirectional influx rate) (male E3 HFD mice, midbrain, no significant transport (p > 0.05)): 0.96 µL/g/min
Ki, linear BBB transport (unidirectional influx rate) (male E3 HFD mice, occipital cortex): 0.88 µL/g/min
Ki, linear BBB transport (unidirectional influx rate) (male E3 HFD mice, parietal cortex, no significant transport (p > 0.05)): -0.07 µL/g/min
Ki, linear BBB transport (unidirectional influx rate) (male E3 HFD mice, striatum, no significant transport (p > 0.05)): 0.04 µL/g/min
Ki, linear BBB transport (unidirectional influx rate) (male E3 HFD mice, thalamus, no significant transport (p > 0.05)): 0.65 µL/g/min
Ki, linear BBB transport (unidirectional influx rate) (male E3 LFD mice, cerebellum): 1.06 µL/g/min
Ki, linear BBB transport (unidirectional influx rate) (male E3 LFD mice, hippocampus): 0.92 µL/g/min
Ki, linear BBB transport (unidirectional influx rate) (male E3 LFD mice, hypothalamus): 1.22 µL/g/min
Ki, linear BBB transport (unidirectional influx rate) (male E3 LFD mice, midbrain): 0.40 µL/g/min
Ki, linear BBB transport (unidirectional influx rate) (male E3 LFD mice, occipital cortex): 0.75 µL/g/min
Ki, linear BBB transport (unidirectional influx rate) (male E3 LFD mice, olfactory bulb): 1.28 µL/g/min
Ki, linear BBB transport (unidirectional influx rate) (male E3 LFD mice, pons/medulla): 1.41 µL/g/min
Ki, linear BBB transport (unidirectional influx rate) (male E3 LFD mice, striatum, no significant transport (p > 0.05)): 0.59 µL/g/min
Ki, linear BBB transport (unidirectional influx rate) (male E3 LFD mice, thalamus, no significant transport (p > 0.05)): 0.56 µL/g/min
Ki, linear BBB transport (unidirectional influx rate) (male E4 HFD mice, hippocampus, no significant transport (p > 0.05)): 0.36 µL/g/min
